The data set concerns the target Tyr24 (position 24, …). Put plainly: NMR. Conditions: 10 C; no added salt (NaCl, KCl absent); 10 mM phosphate only; 10 mM phosphate buffer (initial pH 7), 0.1 mM DSS; soluble, predominantly disordered repetitive domain; about 1.5-2.2 mM protein.

B1: MaSp1 repetitive domain 15-mer (15 contiguous copies of the consensus repeat of major ampullate spidroin 1) (Nephila clavipes (Trichonephila clavipes); … (protein)
chain: GRGGLGGQGAGAAAAAGGAGQGGYGGLGSQGTSGRGGLGGQGAGAAAAAGGAGQGGYGGLGSQGTSGRGGLGGQGAGAAAAAGGAGQGGYGGLGSQGTSGRGGLGGQGAGAAAAAGGAGQGGYGGLGSQGTSGRGGLGGQGAGAAAAAGGAGQGGYGGLGSQGTSGRGGLGGQGAGAAAAAGGAGQGGYGGLGSQGTSGRGGLGGQGAGAAAAAGGAGQGGYGGLGSQGTSGRGGLGGQGAGAAAAAGGAGQGGYGGLGSQGTSGRGGLGGQGAGAAAAAGGAGQGGYGGLGSQGTSGRGGLGGQGAGAAAAAGGAGQGGYGGLGSQGTSGRGGLGGQGAGAAAAAGGAGQGGYGGLGSQGTSGRGGLGGQGAGAAAAAGGAGQGGYGGLGSQGTSGRGGLGGQGAGAAAAAGGAGQGGYGGLGSQGTSGRGGLGGQGAGAAAAAGGAGQGGYGGLGSQGTSGRGGLGGQGAGAAAAAGGAGQGGYGGLGSQGTS
In general, pKa refers to the negative logarithm of the acid dissociation constant. With B1, the pKa is 10.25 ± 0.02.

Values taken from paper PMC5974136.
